One protein from PMC12136491, “Establishment of an efficient one-step enzymatic synthesis of cyclic-2,3-diphosphoglycerate” (Frontiers in Microbiology, 2025) can be followed below.

The data set concerns the molecule itself. The data set is described as follows: SEC; native molecular mass; Superose Increase 10/300 column, 50 mM MES/KOH (pH 6.5), 400 mM KCl, flow rate 0.5 mL/min, 5 mg of protein loaded. For orientation: SEC sorts molecules by how far they enter the pores of the column.

“And” between values parts separate entries of the source, which are not always exact repeats. Equal entries are not always repeated.

B1: cyclic-2,3-diphosphoglycerate synthetase from Methanothermus fervidus, recombinant, without affinity tag (enzyme, UniProt O93732 1-460, looked up)
chain: MGETKKMICLVDGEHYFPVVKDSIEILDDLEHIDVVAVVFIGGTEKLQIEDPKEYSEKLGKPVFFGPDPKKIPYDVIKKCVKKYNADIVMDLSDEPVVDYTKRFRIASIVLKEGAVYQGADFKFEPLTEYDVLEKPSIKIIGTGKRIGKTAVSAYAARVIHKHKYNPCVVAMGRGGPREPEIVEGNKIEITAEYLLEQADKGVHAASDHWEDALMSRILTVGCRRCGGGMLGDTFITNVKRGAEIANKLDSDFVIMEGSGAAIPPVKTNRQIVTVGANQPMININNFFGPFRIGLADLVIITMCEEPMATTEKIKKVEKFIKEINPSANVIPTVFRPKPVGNVEGKKVLFATTAPKVVVGKLVNYLESKYGCDVVGVTPHLSNRPLLRRDLKKYINKADLMLTELKAAAVDVATRVAIEAGLDVVYCDNIPVVIDESYGNIDDAIIEVVEMAIDDFKNNR
notes: cyclic 2,3-diphosphoglycerate synthetase (cdpgs gene, 1,383 bp) of Methanothermus fervidus, Mfer_0077, CAA70986; calculated molecular mass 50.7 kDa; codon-optimized gene, no tag; also called MfcDPGS; cDPGS
One may read the stoichiometry N as the number of molecules, sites or subunits per partner or assembly. Take B1: the “stoichiometry N” value is 2 and 4.
